According to patent publication US20220119534A1 (DRAGONFLY THERAPEUTICS, published 2022):
Positions count from the first letter of the chain named. In names and notes the source's numbering stands.

Key:
mFc-hNKG2D [1] = biological target: T1, mFc-hNKG2D (human, UniProt P26718 73-216); assay: SPR Biacore 8K 37 C; mFc-hNKG2D captured on anti-mFc chip, TriNKET as analyte; kinetics fit; average of 4
T1 construct: extracellular domain; Made in house (Dragonfly Tx); the order of tag and ECD follows the name mFc-hNKG2D; also called mFc-tagged human NKG2D; not shown: mouse Fc tag
T1 sequence (looked up): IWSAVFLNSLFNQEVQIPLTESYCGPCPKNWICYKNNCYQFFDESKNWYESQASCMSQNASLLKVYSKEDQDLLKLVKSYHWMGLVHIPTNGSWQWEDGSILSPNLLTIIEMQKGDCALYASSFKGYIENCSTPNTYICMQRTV

mFc-hNKG2D [2] = biological target: T1, mFc-hNKG2D; assay: SPR Biacore 8K 37 C; mFc-hNKG2D captured on anti-mFc chip, TriNKET as analyte; steady state fit; control sample
Procedure: Association was monitored for 60 seconds and dissociation was monitored for 60 seconds. Surfaces were regenerated between cycles with three pulses of 10 mM glycine-HCl, pH 1.7 injected for 20 seconds at 100 μL/min. HBS-EP+ (1×) buffer was used throughout the experiment. Data were analyzed using Biacore 8K Insight evaluation software (GE Healthcare).

mFc-hNKG2D [3] = biological target: T1, mFc-hNKG2D; assay: SPR Biacore 8K 37 C; mFc-hNKG2D captured on anti-mFc chip, TriNKET as analyte; steady state fit; pH 5.0 control
Human CLEC12A-His [4] = biological target: T2, Human CLEC12A-His (human, UniProt Q5QGZ9 65-265); assay: SPR Biacore 8K 37 C; TriNKET captured on anti-hFc chip, hCLEC12A-His as analyte; 1:1 fit; after 4 wks 40 C in phosphate/citrate/NaCl pH 7.8, n=2
T2 construct: Recombinant soluble protein made in house (Dragonfly Tx); The hCLEC12A spot of the HuProt array is written under this molecule as well; also called hCLEC12A-His; hCLEC12A; not shown: His tag
T2 sequence: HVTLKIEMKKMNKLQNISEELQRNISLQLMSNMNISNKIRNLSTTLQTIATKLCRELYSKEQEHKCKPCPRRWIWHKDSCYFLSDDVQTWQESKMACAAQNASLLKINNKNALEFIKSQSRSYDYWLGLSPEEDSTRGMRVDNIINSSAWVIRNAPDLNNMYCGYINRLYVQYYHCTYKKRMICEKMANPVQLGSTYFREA

Human CLEC12A-K244Q-His = biological target: T3, Human CLEC12A-K244Q-His (human, UniProt Q5QGZ9 65-265); assay: SPR, two-state fit (kd1)
T3 construct: also called hCLEC12A (Q244); CLEC12A (Q244); not shown: His tag
T3 chain: T2 sequence with K180Q

[5] = biological target: T4, Human CLEC12A-His (recombinant, K244 WT) (human, UniProt Q5QGZ9 65-265); assay: SPR, two-state fit; control sample
T4 construct: Made in house (Dragonfly Tx); also called hCLEC12A; hCLEC12A-His; not shown: His tag
T4 sequence: T2 sequence

[6] = biological target: T4, Human CLEC12A-His (recombinant, K244 WT); assay: SPR, untreated CLEC12A, two-state fit (kd1)
Procedure: (§1) Briefly, human Fc specific antibodies were covalently immobilized at a density ˜8000-10000 resonance units (RU) on carboxy methyl dextran matrix of a CM5 biosensor chip via amine-coupling chemistry to create an anti-hFc IgG chip. […] Association was monitored for 300 seconds and dissociation was monitored for 600 seconds. Surfaces were regenerated between cycles with three pulses of 10 mM glycine-HCl, pH 1.7 injected for 20 seconds at 100 μl/min. HBS-EP+ (1×) with 0.1 mg/ml BSA was used as running buffer throughout the experiment. Experiments were performed at physiological temperature of 37° C. To obtain kinetic rate constants and overall binding affinity, double-referenced data were fit to a two-state kinetic model using Biacore 8K Insight Evaluation software (Cytiva).

[7] = biological target: T4, Human CLEC12A-His (recombinant, K244 WT); assay: SPR, two-state fit (kd1); after low pH hold
Procedure: as §1

Cynomolgus FcRn = biological target: T5, Cynomolgus FcRn (cynomolgus monkey, UniProt Q8SPV9 24-297; Q8SPW0 21-119); assay: SPR 25C, pH 6.0, FcRn on chip, steady state fit (n = 3)
T5 construct: Bought recombinant receptor; also called cFcRn; cyno FcRn
T5 sequence (Q8SPV9 24-297 limits assumed, chain 1 of 2): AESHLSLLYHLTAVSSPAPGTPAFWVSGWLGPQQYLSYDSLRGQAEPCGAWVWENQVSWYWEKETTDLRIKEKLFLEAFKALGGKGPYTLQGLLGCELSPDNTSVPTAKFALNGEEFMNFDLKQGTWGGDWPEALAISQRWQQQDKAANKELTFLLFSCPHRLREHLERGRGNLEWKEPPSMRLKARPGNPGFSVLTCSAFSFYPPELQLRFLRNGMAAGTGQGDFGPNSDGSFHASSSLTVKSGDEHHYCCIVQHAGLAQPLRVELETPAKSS
T5 sequence (Q8SPW0 21-119 limits assumed, chain 2 of 2): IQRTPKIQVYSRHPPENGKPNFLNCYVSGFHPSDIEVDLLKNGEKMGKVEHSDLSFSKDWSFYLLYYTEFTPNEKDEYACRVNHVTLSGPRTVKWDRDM
Procedure: Recombinant human or cynomolgus monkey (cyno) FcRn was captured on a surface of an SA series S chip at a concentration of 0.25 μg/mL for 1 minute. […] Each FcRn binding experiment consisted of multiple cycles utilizing varying concentrations of analytes. […] 0 nM blank cycle placed at the start of each concentration series and a blank amine coupling modified chip surface lacking FcRn were used for referencing. Each experimental cycle included association, dissociation and regeneration steps. The association step consisted of 60 sec analyte injection and was followed by a 60 sec dissociation step. Surface regeneration (60 sec injection of HBS-EP+ buffer, pH 7.4) completed each kinetic cycle. All steps were executed at a flow rate of 30 μL/min and at 25° C. MBS-EP+ buffer, pH 6.0 was used as a running buffer. The data were fitted to a steady state affinity model with Biacore Insight evaluation software. Chi² (calculated by the software) related to the calculated Rₘₐₓ was used to assess goodness of the fit. All reported values were rounded to one decimal place.

Human CLEC12A-His [8] = biological target: T6, Human CLEC12A-His (human, UniProt Q5QGZ9 65-265); assay: SPR, hCLEC12A (K244) WT
T6 construct: Recombinant soluble protein made in house; also called hCLEC12A-His; hCLEC12A; not shown: His tag
T6 sequence: T2 sequence

Human CLEC12A-His [9] = biological target: T6, Human CLEC12A-His; assay: SPR; control sample (HST pH 6.0 study)
mFc-hNKG2D [10] = biological target: T7, mFc-hNKG2D (human, UniProt P26718 73-216); assay: SPR; control sample (HST pH 6.0 study)
T7 construct: extracellular domain; Recombinant mFc-tagged NKG2D dimer, made in house; also called human NKG2D; not shown: mouse Fc tag
T7 sequence (looked up): T1 sequence (looked up)

Human CD16a V158 [11] = biological target: T8, Human CD16a V158 (human, UniProt P08637 17-208, biotinylated); assay: SPR; control sample (HST pH 6.0 study)
T8 construct: Bought recombinant receptor; also called hCD16a (V158); hFcγRIIIa V158
T8 sequence (P08637 17-208 F176V limits assumed): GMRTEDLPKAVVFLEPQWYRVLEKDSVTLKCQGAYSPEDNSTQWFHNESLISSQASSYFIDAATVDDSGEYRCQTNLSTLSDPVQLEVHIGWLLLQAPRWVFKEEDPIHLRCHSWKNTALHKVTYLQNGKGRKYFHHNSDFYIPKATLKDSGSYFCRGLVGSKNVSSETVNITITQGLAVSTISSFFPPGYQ

Human CLEC12A-His [12] = biological target: T6, Human CLEC12A-His; assay: SPR; control sample (CST pH 7.0 study)
mFc-hNKG2D [13] = biological target: T7, mFc-hNKG2D; assay: SPR; control sample (CST pH 7.0 study)
Human CD16a V158 [14] = biological target: T8, Human CD16a V158; assay: SPR; control sample (CST pH 7.0 study)
[15] = biological target: T9, recombinant cynomolgus FcRn (cynomolgus monkey, UniProt Q8SPV9 24-297; Q8SPW0 21-119); assay: SPR 25C, pH 6.0, steady state; pH 6.0; fourth replicate
T9 construct: also called cFcRn; cyno FcRn
T9 sequence (Q8SPV9 24-297 limits assumed, chain 1 of 2): as the sequence (Q8SPV9 24-297 limits assumed, chain 1 of 2) above
T9 sequence (Q8SPW0 21-119 limits assumed, chain 2 of 2): as the sequence (Q8SPW0 21-119 limits assumed, chain 2 of 2) above
Procedure: (§2) Each FcRn binding experiment consisted of multiple cycles utilizing varying concentrations of analytes. […] As no-signal, negative controls, a 0 nM blank cycle was placed at the start of each concentration series, and a blank amine coupling modified chip surface lacking FcRn were used. Each experimental cycle included association, dissociation, and regeneration steps. The association step consisted of 60 sec analyte injection and was followed by a 60 sec dissociation step. Surface regeneration (60 sec injection of HBS-EP+ buffer, pH 7.4) completed each kinetic cycle. All steps were executed at a flow rate of 30 μL/min and at 25° C. MBS-EP+ buffer, pH 6.0 was used as a running buffer. The data were fitted to a steady state affinity model with Biacore Insight evaluation software. Chi² (calculated by the software) related to the calculated Rₘₐₓ was used to assess goodness of the fit.

[16] = biological target: T9, recombinant cynomolgus FcRn; assay: SPR 25C, pH 6.0, steady state, average; pH 6.0; average of four replicates
Procedure: as §2

B1: F3'-1602 TriNKET (bispecific antibody, human IgG1, kappa)
chain: QLQLQESGPGLVKPSETLSLTCTVSGFSLTNYGLHWIRQPPGKCLEWIGVIWSGGKTDYNPSLKSRVTISKDTSKNQFSLKLSSVQAADTAVYYCAKYDYDDSLDYWGQGTLVTVSSGGGGSGGGGSGGGGSGGGGSDIQMTQSPSSLSASVGDRVTITCHASQNINFWLSWYQQKPGKAPKLLIYEASNLHTGVPSRFSGSGSGTRFTLTISSLQPEDIATYYCQQSHSYPLTFGCGTKLEIKGSDKTHTCPPCPAPELLGGPSVFLFPPKPKDTLMISRTPEVTCVVVDVSHEDPEVKFNWYVDGVEVHNAKTKPREEQYNSTYRVVSVLTVLHQDWLNGKEYKCKVSNKALPAPIEKTISKAKGQPREPRVYTLPPCRDELTKNQVSLTCLVKGFYPSDIAVEWESNGQPENNYKTTPPVLVSDGSFTLYSKLTVDKSRWQQGNVFSCSVMHEALHNHYTQKSLSLSPG
heavy: EVQLVESGGGLVKPGGSLRLSCAASGFTFSSYSMNWVRQAPGKGLEWVSSISSSSSYIYYADSVKGRFTISRDNAKNSLYLQMNSLRAEDTAVYYCARGAPIGAAAGWFDPWGQGTLVTVSSASTKGPSVFPLAPSSKSTSGGTAALGCLVKDYFPEPVTVSWNSGALTSGVHTFPAVLQSSGLYSLSSVVTVPSSSLGTQTYICNVNHKPSNTKVDKKVEPKSCDKTHTCPPCPAPELLGGPSVFLFPPKPKDTLMISRTPEVTCVVVDVSHEDPEVKFNWYVDGVEVHNAKTKPREEQYNSTYRVVSVLTVLHQDWLNGKEYKCKVSNKALPAPIEKTISKAKGQPREPQVCTLPPSRDELTENQVSLTCLVKGFYPSDIAVEWESNGQPENNYKTTPPVLDSDGSFFLYSWLTVDKSRWQQGNVFSCSVMHEALHNHYTQKSLSLSPG
light: DIQMTQSPSSVSASVGDRVTITCRASQGISSWLAWYQQKPGKAPKLLIYAASSLQSGVPSRFSGSGSGTDFTLTISSLQPEDFATYYCQQGVSFPRTFGGGTKVEIKRTVAAPSVFIFPPSDEQLKSGTASVVCLLNNFYPREAKVQWKVDNALQSGNSQESVTEQDSKDSTYSLSSTLTLSKADYEKHKVYACEVTHQGLSSPVTKSFNRGEC
notes: Trispecific F3' format: CLEC12A scFv-Fc paired with NKG2D Fab-Fc; Stressed and control samples of the stability studies are the same molecule; also called AB0237
With B1 the Kd (mFc-hNKG2D [1]) was 721 nM, the Kd (mFc-hNKG2D [2]) was 771 nM and the Kd (mFc-hNKG2D [3]) was 684 nM. It also gave a Kd (Human CLEC12A-His [4]) of 1.14 nM, a koff (Human CLEC12A-His [4]) of 0.000948 s⁻¹ and a kon (Human CLEC12A-His [4]) of 829000 M⁻¹ s⁻¹.

B2: AB0089 TriNKET (bispecific antibody, human IgG1, kappa)
chain: B1 chain with S53V, K56A, K71V, Y98G, D101G, S103T, R207D, I220F
heavy: B1 heavy
light: B1 light
notes: F3' format heterodimer of three chains; human IgG1 Fc with EW-RVT and Y349C/S354C mutations; also called AB0089 Lot AB0089-002; CLEC12A TriNKET AB0089
B2 showed a koff (Human CLEC12A-K244Q-His) of 0.00353 s⁻¹, a Kd [5] of 0.9 nM and a koff [6] of 0.0398 s⁻¹. It also gave a koff [7] of 0.0465 s⁻¹ and a Kd (Cynomolgus FcRn) of 1000 nM.

B3: AB0192 TriNKET (other)
chain: EVQLVESGGGVVQPGGSLRLSCAASGFTFNAFGMHWVRQAPGKCLEWVAFISSGSTSIYYANTVKGRFTISRDNSKNTLYLQMNSLRAEDTAVYYCARDGYPTGGAMDYWGQGTSVTVSSGGGGSGGGGSGGGGSGGGGSDIQMTQSPSSLSASVGDRVTITCKASQDIYNYLSWFQQKPGKAPKPLIYRANILVSGVPSRFSGSGSGQDYTFTISSLQPEDIATYYCLQFDAFPFTFGCGTKLEIKGSDKTHTCPPCPAPELLGGPSVFLFPPKPKDTLMISRTPEVTCVVVDVSHEDPEVKFNWYVDGVEVHNAKTKPREEQYNSTYRVVSVLTVLHQDWLNGKEYKCKVSNKALPAPIEKTISKAKGQPREPRVYTLPPCRDELTKNQVSLTCLVKGFYPSDIAVEWESNGQPENNYKTTPPVLVSDGSFTLYSKLTVDKSRWQQGNVFSCSVMHEALHNHYTQKSLSLSPG
heavy: B1 heavy
light: B1 light
notes: the condition stands under assay; also called AB0192 Lot AB0192-005
In the case of B3, the Kd (Human CLEC12A-His [8]) is reported as 1.65 nM, the koff (Human CLEC12A-His [8]) is reported as 0.00115 s⁻¹ and the kon (Human CLEC12A-His [8]) is reported as 698000 M⁻¹ s⁻¹. The Kd (Human CLEC12A-His [9]) was 1.81 nM, the koff (Human CLEC12A-His [9]) was 0.0014 s⁻¹ and the kon (Human CLEC12A-His [9]) was 776000 M⁻¹ s⁻¹. For the same binder, the Kd (mFc-hNKG2D [10]) was 588 nM, the koff (mFc-hNKG2D [10]) was 0.122 s⁻¹ and the kon (mFc-hNKG2D [10]) was 208000 M⁻¹ s⁻¹. The Kd (Human CD16a V158 [11]) was 171 nM, the koff (Human CD16a V158 [11]) was 0.0199 s⁻¹ and the kon (Human CD16a V158 [11]) was 117000 M⁻¹ s⁻¹. It also gave a Kd (Human CLEC12A-His [12]) of 1.81 nM, a koff (Human CLEC12A-His [12]) of 0.0014 s⁻¹ and a kon (Human CLEC12A-His [12]) of 776000 M⁻¹ s⁻¹. The Kd (mFc-hNKG2D [13]) was 588 nM, the koff (mFc-hNKG2D [13]) was 0.122 s⁻¹ and the kon (mFc-hNKG2D [13]) was 208000 M⁻¹ s⁻¹. The Kd (Human CD16a V158 [14]) was 171 nM, the koff (Human CD16a V158 [14]) was 0.0199 s⁻¹ and the kon (Human CD16a V158 [14]) was 117000 M⁻¹ s⁻¹.

B4: F3'-1602 TriNKET (other)
chain: B1 chain
heavy: B1 heavy
light: B1 light
notes: CLEC12A scFv-Fc, NKG2D A49MI Fab-Fc, human IgG1 Fc; also called AB0237
With B4 the Kd [15] was 1500 nM and the Kd [16] was 1300 nM.
